T1: DDX49 on the HuProt array (human, UniProt Q9Y6V7 1-483)
T1 construct: DDX49, human; array proteins are said to come from full-length genes; source: immobilised on the Human Proteome Microarray v3.0 (HuProt array)
T1 sequence (looked up): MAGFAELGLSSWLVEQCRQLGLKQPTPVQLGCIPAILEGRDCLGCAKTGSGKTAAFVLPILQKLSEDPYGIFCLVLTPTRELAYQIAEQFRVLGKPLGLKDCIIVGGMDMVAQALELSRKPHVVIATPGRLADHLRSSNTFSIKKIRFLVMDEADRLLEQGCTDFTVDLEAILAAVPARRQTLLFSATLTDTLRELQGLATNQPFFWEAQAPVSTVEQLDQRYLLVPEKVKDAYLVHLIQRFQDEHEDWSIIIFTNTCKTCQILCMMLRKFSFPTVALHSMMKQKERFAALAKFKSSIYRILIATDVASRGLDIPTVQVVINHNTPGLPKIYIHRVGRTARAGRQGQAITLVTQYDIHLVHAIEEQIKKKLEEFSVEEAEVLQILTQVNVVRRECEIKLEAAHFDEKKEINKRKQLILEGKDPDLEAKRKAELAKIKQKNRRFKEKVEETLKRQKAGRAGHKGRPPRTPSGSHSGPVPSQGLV

T2: PLEK on the HuProt array (human, UniProt P08567 1-350)
T2 construct: PLEK (pleckstrin), human; array proteins are said to come from full-length genes; source: immobilised on the Human Proteome Microarray v3.0 (HuProt array)
T2 sequence (looked up): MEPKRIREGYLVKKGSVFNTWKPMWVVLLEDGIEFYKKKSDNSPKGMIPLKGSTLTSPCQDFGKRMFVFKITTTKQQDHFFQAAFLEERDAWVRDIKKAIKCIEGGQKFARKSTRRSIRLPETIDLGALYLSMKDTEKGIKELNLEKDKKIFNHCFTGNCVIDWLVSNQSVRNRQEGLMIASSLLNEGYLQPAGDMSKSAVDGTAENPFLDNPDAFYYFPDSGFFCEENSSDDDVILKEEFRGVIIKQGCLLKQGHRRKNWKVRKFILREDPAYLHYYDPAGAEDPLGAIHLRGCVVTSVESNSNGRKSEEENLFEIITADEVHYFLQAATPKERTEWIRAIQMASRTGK


Key:
[1] = biological target: T1, DDX49 on the HuProt array; assay: peptide or protein array; details: both partners purified
PLEK on the HuProt array = biological target: T2, PLEK on the HuProt array; assay: peptide or protein array; details: both partners purified

Binder | binding result [1] | binding result (PLEK on the HuProt array)
ZIKV-NS4B, N-terminal GST fusion, Cy5-labelled (natural protein, Cy5 (NHS-tethered dye), sites not stated, also called SN4B; source: yeast (vector pEGH-A), purified on glutathione beads; not shown: GST, N-terminal, kept) NELGWLERTKNDIAHLMGRREEGATMGFSMDIDLRPASAWAIYAALTTLITPAVQHAVTTSYNNYSLMAMATQAGVLFGMGKGMPFMHGDLGVPLLMMGCYSQLTPLTLIVAIILLVAHYMYLIPGLQAAAARAAQKRTAAGIMKNPVVDGIVVTDIDTMTIDPQVEKKMGQVLLIAVAISSAVLLRTAWGWGEAGALITAATSTLWEGSPNKYWNSSTATSLCNIFRGSYLAGASLIYTVTRNAGLVKRR | binds | –
ZIKV-NS2A, N-terminal GST fusion, Cy5-labelled (natural protein, Cy5 (NHS-tethered dye), sites not stated, source: yeast (vector pEGH-A), purified on glutathione beads; not shown: GST, N-terminal, kept) GSTDHMDHFSLGVLVILLMVQEGLKKRMTTKIIMSTSMAVLVVMILGGFSMSDLAKLVILMGATFAEMNTGGDVAHLALVAAFKVRPALLVSFIFRANWTPRESMLLALASCLLQTAISALEGDLMVLINGFALAWLAIRAMAVPRTDNIALPILAALTPLARGTLLVAWRAGLATCGGIMLLSLKGKGSVKKNLPFVMALGLTAVRVVDPINVVGLLLLTRSGKR | – | binds

— PMC8498969, “An Integrated Systems Biology Approach Identifies the Proteasome as A Critical Host Machinery for ZIKV and DENV Replication” (Genomics, Proteomics & Bioinformatics, 2021)
